± gives the uncertainty stated by the source.
Assay: protein stability index of a GFP-peptide fusion (yeast GPS) (PSI 1-4); higher = more stable; sorted into four equal gates, so the index is relative within each strain
Summary of the method: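 Tiled yeast protein peptides of 17 residues were each joined downstream of GFP, on plasmids that also express Cherry. The pooled library was maintained in yeast, and mid-log cultures in leucine-free medium were sorted into four equal gates on the GFP/Cherry ratio. Plasmids from every gate were amplified by PCR and sequenced on Illumina, with barcodes linking reads to strains. The protein stability index of a peptide is its gate-number-weighted read frequency summed over the gates.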

Sequence: VDKIFEKVNNNATLTPN [SWI1]
- protein stability index (doa10∆): 3.09 ± 0.079
- protein stability index (pdr5∆): 3.08 ± 0.073
- protein stability index (san1∆): 3.22 ± 0.069
- protein stability index (ubr1∆): 3.15 ± 0.051

Sequence: TELKKITDKTIKAFMDS [IRR1]
- protein stability index (doa10∆): 2.99 ± 0.065
- protein stability index (pdr5∆): 2.42 ± 0.054
- protein stability index (san1∆): 2.46 ± 0.072
- protein stability index (ubr1∆): 2.52 ± 0.079

Sequence: FLKLVLSESPVDFEKFE [SIN4]
- protein stability index (doa10∆): 2.58 ± 0.047
- protein stability index (pdr5∆): 2.69 ± 0.069
- protein stability index (san1∆): 2.66 ± 0.07
- protein stability index (ubr1∆): 2.7 ± 0.067

Sequence: RIKLATTSERVSNENKK [RRI1]
- protein stability index (doa10∆): 2.88 ± 0.063
- protein stability index (pdr5∆): 3.08 ± 0.071
- protein stability index (san1∆): 2.94 ± 0.066
- protein stability index (ubr1∆): 3.1 ± 0.11

Sequence: MQIFVKTLTGKTITLEV [RPS31]
- protein stability index (doa10∆): 2.48 ± 0.17
- protein stability index (pdr5∆): 1.76 ± 0.097
- protein stability index (san1∆): 2.61 ± 0.13
- protein stability index (ubr1∆): 3.13 ± 0.13

Sequence: NNNNNNNNNSTRPQMPS [GRR1]
- protein stability index (doa10∆): 2.891 ± 0.019
- protein stability index (pdr5∆): 3.041 ± 0.017
- protein stability index (san1∆): 3.062 ± 0.018
- protein stability index (ubr1∆): 3.027 ± 0.018

Sequence: MEGDDLFDEFGNLIGVD [SNU114]
- protein stability index (doa10∆): 3.37 ± 0.2

Sequence: IEWAEHHRDSNFPDEDD [SKP1]
- protein stability index (doa10∆): 3.1 ± 0.065
- protein stability index (pdr5∆): 3.17 ± 0.059
- protein stability index (san1∆): 3.08 ± 0.046
- protein stability index (ubr1∆): 3.33 ± 0.057

Sequence: TEQFCATLNYIDKNHGF [SRB7]
- protein stability index (doa10∆): 2.26 ± 0.055
- protein stability index (pdr5∆): 2.99 ± 0.061
- protein stability index (san1∆): 3.2 ± 0.057
- protein stability index (ubr1∆): 2.47 ± 0.052

Sequence: TVEALDFREKALYIAMM [RET1]
- protein stability index (doa10∆): 2.73 ± 0.1
- protein stability index (pdr5∆): 3.03 ± 0.096
- protein stability index (san1∆): 3.29 ± 0.076
- protein stability index (ubr1∆): 2.59 ± 0.082

Sequence: REKYNMKGPAALWDVQF [ARP9]
- protein stability index (doa10∆): 3.49 ± 0.073
- protein stability index (pdr5∆): 3.59 ± 0.08
- protein stability index (san1∆): 3.49 ± 0.062
- protein stability index (ubr1∆): 3.45 ± 0.064

Sequence: NSSNYFGELQFAFLNAM [AAR2]
- protein stability index (doa10∆): 2.86 ± 0.088
- protein stability index (pdr5∆): 2.94 ± 0.071
- protein stability index (san1∆): 2.69 ± 0.071
- protein stability index (ubr1∆): 2.89 ± 0.054

Sequence: PSENDVFYRMQQLRRAL [RPO31]
- protein stability index (doa10∆): 2.03 ± 0.056
- protein stability index (pdr5∆): 1.94 ± 0.046
- protein stability index (san1∆): 2.5 ± 0.1
- protein stability index (ubr1∆): 2.14 ± 0.067

Sequence: KDMLYSGITGECLQAYI [RET1]
- protein stability index (doa10∆): 2.65 ± 0.047
- protein stability index (pdr5∆): 2.68 ± 0.051
- protein stability index (san1∆): 2.5 ± 0.052
- protein stability index (ubr1∆): 2.31 ± 0.057

Sequence: LVLGEVSKKELYAIKKV [BRR2]
- protein stability index (doa10∆): 1.68 ± 0.073
- protein stability index (pdr5∆): 2.37 ± 0.096
- protein stability index (san1∆): 3.13 ± 0.079
- protein stability index (ubr1∆): 1.83 ± 0.08

Sequence: GEFSGKNFSPTKRVEKP [RRP6]
- protein stability index (doa10∆): 2.37 ± 0.089
- protein stability index (pdr5∆): 2.47 ± 0.094
- protein stability index (san1∆): 2.54 ± 0.078
- protein stability index (ubr1∆): 3.22 ± 0.059

Sequence: GKRHIFDVNTLCLMTWK [CDC53]
- protein stability index (doa10∆): 1.25 ± 0.061
- protein stability index (pdr5∆): 1.75 ± 0.066
- protein stability index (san1∆): 1.44 ± 0.14
- protein stability index (ubr1∆): 2.08 ± 0.085

Sequence: NCPHSDSTQLLETILEE [SSN2]
- protein stability index (doa10∆): 2.81 ± 0.1
- protein stability index (pdr5∆): 3.1 ± 0.088
- protein stability index (san1∆): 3.11 ± 0.13
- protein stability index (ubr1∆): 2.94 ± 0.063

Sequence: MPGSQINSPMPQQAQMQ [SNF2]
- protein stability index (doa10∆): 2.9 ± 0.081
- protein stability index (pdr5∆): 2.87 ± 0.096
- protein stability index (san1∆): 3.05 ± 0.07
- protein stability index (ubr1∆): 2.95 ± 0.097

Sequence: PLAKKQTVRLIKDLQRA [SIR2]
- protein stability index (doa10∆): 2.77 ± 0.08
- protein stability index (pdr5∆): 3.01 ± 0.07
- protein stability index (san1∆): 2.77 ± 0.057
- protein stability index (ubr1∆): 2.97 ± 0.062

Sequence: HIRRMVPLAMGIVSVSD [RPN1]
- protein stability index (doa10∆): 1.32 ± 0.039
- protein stability index (pdr5∆): 1.61 ± 0.052
- protein stability index (san1∆): 1.55 ± 0.083
- protein stability index (ubr1∆): 1.57 ± 0.044

Sequence: GSLACDTADEAKTLIPS [RPB4]
- protein stability index (doa10∆): 3.06 ± 0.1
- protein stability index (pdr5∆): 3.42 ± 0.086
- protein stability index (san1∆): 3.33 ± 0.051
- protein stability index (ubr1∆): 3.17 ± 0.071

Sequence: WSSLLNEGLVEYIDAEE [RPB2]
- protein stability index (doa10∆): 2.84 ± 0.21
- protein stability index (pdr5∆): 3.44 ± 0.17
- protein stability index (ubr1∆): 2.97 ± 0.16

Sequence: LQQICRVRNKDIRKFLD [RPL9A]
- protein stability index (doa10∆): 2.13 ± 0.074
- protein stability index (pdr5∆): 2.2 ± 0.074
- protein stability index (san1∆): 2.04 ± 0.1
- protein stability index (ubr1∆): 2.31 ± 0.054

Sequence: AELRPLQFKSIREIDVA [RPS7A]
- protein stability index (doa10∆): 2.26 ± 0.093
- protein stability index (pdr5∆): 1.67 ± 0.1
- protein stability index (san1∆): 1.97 ± 0.24
- protein stability index (ubr1∆): 1.43 ± 0.068

Sequence: QSSSSTRSHEYGRKSFR [REC8]
- protein stability index (doa10∆): 2.83 ± 0.11
- protein stability index (pdr5∆): 2.92 ± 0.099
- protein stability index (san1∆): 2.84 ± 0.12
- protein stability index (ubr1∆): 3.2 ± 0.13

Sequence: GEKTLSSLALVFALHKY [SMC4]
- protein stability index (doa10∆): 2.57 ± 0.054
- protein stability index (pdr5∆): 2.48 ± 0.066
- protein stability index (san1∆): 1.9 ± 0.12
- protein stability index (ubr1∆): 2.98 ± 0.051

Sequence: SIRSRRPYQVNVLIGGY [PRE1]
- protein stability index (doa10∆): 2.34 ± 0.17
- protein stability index (pdr5∆): 2.88 ± 0.09
- protein stability index (san1∆): 1.71 ± 0.19
- protein stability index (ubr1∆): 3.04 ± 0.1

Sequence: EEVNRCYLRWQHLRNEH [SNF2]
- protein stability index (doa10∆): 3.27 ± 0.07
- protein stability index (pdr5∆): 3 ± 0.075
- protein stability index (san1∆): 3.23 ± 0.071
- protein stability index (ubr1∆): 3.05 ± 0.075

Sequence: VDLTSSNFADSADYEIL [YDL116W/NUP84]
- protein stability index (doa10∆): 2.84 ± 0.087
- protein stability index (pdr5∆): 3.12 ± 0.098
- protein stability index (san1∆): 3.31 ± 0.093
- protein stability index (ubr1∆): 3.29 ± 0.09

Sequence: KQLQLAMHNSKAASSTR [POP1]
- protein stability index (doa10∆): 1.96 ± 0.057
- protein stability index (pdr5∆): 2.17 ± 0.071
- protein stability index (san1∆): 1.54 ± 0.11
- protein stability index (ubr1∆): 1.74 ± 0.037

Sequence: NGITLALIDAGISMFDY [SKI6]
- protein stability index (doa10∆): 1.38 ± 0.068
- protein stability index (pdr5∆): 1.51 ± 0.042
- protein stability index (san1∆): 1.59 ± 0.14
- protein stability index (ubr1∆): 1.56 ± 0.038

Sequence: DGKLEPSTRSNFILEVF [YJL039C/NUP192]
- protein stability index (doa10∆): 1.63 ± 0.081
- protein stability index (pdr5∆): 1.61 ± 0.067
- protein stability index (san1∆): 1.92 ± 0.14
- protein stability index (ubr1∆): 1.33 ± 0.069

Sequence: SLHPLFEQFEKFYEEKL [RPN9]
- protein stability index (doa10∆): 2.67 ± 0.24
- protein stability index (pdr5∆): 2.9 ± 0.16

Sequence: DVRRLKKNVWRSINNLI [BRN1]
- protein stability index (doa10∆): 2.62 ± 0.29
- protein stability index (pdr5∆): 1.9 ± 0.11
- protein stability index (san1∆): 1.06 ± 0.15
- protein stability index (ubr1∆): 1.1 ± 0.063

Sequence: AQYEVLANYLTSALSEL [QCR2]
- protein stability index (doa10∆): 1.94 ± 0.05
- protein stability index (pdr5∆): 2.18 ± 0.04
- protein stability index (san1∆): 1.99 ± 0.067
- protein stability index (ubr1∆): 1.68 ± 0.044

Sequence: MDQDNNNHNDSNRLHPP [GRR1]
- protein stability index (doa10∆): 2.73 ± 0.062
- protein stability index (pdr5∆): 2.79 ± 0.062
- protein stability index (san1∆): 2.69 ± 0.064
- protein stability index (ubr1∆): 2.9 ± 0.04

Sequence: VCGIIVKQEDMPFNDQG [RET1]
- protein stability index (doa10∆): 3.06 ± 0.16
- protein stability index (pdr5∆): 2.87 ± 0.24
- protein stability index (san1∆): 2.46 ± 0.26
- protein stability index (ubr1∆): 2.49 ± 0.21

Sequence: QYYRGLPLYEKNTLLER [SWP82]
- protein stability index (doa10∆): 3.13 ± 0.12
- protein stability index (pdr5∆): 3.34 ± 0.11
- protein stability index (san1∆): 3.13 ± 0.072
- protein stability index (ubr1∆): 3.13 ± 0.049

Sequence: NNMLYPREDKENNRLLF [RPB9]
- protein stability index (doa10∆): 3.13 ± 0.13
- protein stability index (pdr5∆): 3.43 ± 0.16
- protein stability index (san1∆): 2.78 ± 0.1
- protein stability index (ubr1∆): 3.25 ± 0.22

Reference: the supplement of paper PMC9732359
